Experimental findings from patent US9284543B2, “Neutral active soluble truncated PH20 polypeptides and uses thereof” (Halozyme, Inc., priority 2008, dated 2016) are described below.

One series concerns CHO-S cells. The series is described as follows: Western blot analysis of PH20 expression in media and cells after transient expression. The settings on record: media versus cells. Type of series: cell-based, Chinese Hamster. The procedure, abridged: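 CHO-S cells were transiently transfected with mutant PH20-HZ24 plasmids using GeneJuice and expressed for 48-72 h at 37 °C, 5% CO2. Media and cells were harvested separately, with PI-PLC treatment used to release GPI-anchored protein. Non-reduced samples were blotted with rabbit anti-PH20 (0.5 μg/mL), and a band near 66 kDa was scored as PH20.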
(In general: In western blotting, separated proteins are transferred to a membrane and probed.)

The nature of series [1]: Microtiter hyaluronidase activity assay with biotinylated-hyaluronic acid. Type of series: biochemical. As to conditions: Table 6, 72 hour post transfection supernatant.

B1: SPAM1-PMET: C-terminally truncated human PH20, precursor 475 aa (SEQ ID NO:25), mature 440 aa (SEQ ID NO:77) (protein, listed as Homo sapiens)
chain 1: MGVLKFKHIFFRSFVKSSGVSQIVFTFLLIPCCLTLNFRAPPVIPNVPFLWAWNAPSEFCLGKFDEPLDMSLFSFIGSPRINATGQGVTIFYVDRLGYYPYIDSITGVTVNGGIPQKISLQDHLDKAKKDITFYMPVDNLGMAVIDWEEWRPTWARNWKPKDVYKNRSIELVQQQNVQLSLTEATEKAKQEFEKAGKDFLVETIKLGKLLRPNHLWGYYLFPDCYNHHYKKPGYNGSCFNVEIKRNDDLSWLWNESTALYPSIYLNTQQSPVAATLYVRNRVREAIRVSKIPDAKSPLPVFAYTRIVFTDQVLKFLSQDELVYTFGETVALGASGIVIWGTLSIMRSMKSCLLLDNYMETILNPYIINVTLAAKMCSQVLCQEQGVCIRKNWNSSDYLHLNPDNFAIQLEKGGKFTVRGKPTLEDLEQFSEKFYCSCYSTLSCKEKADVKDTDAVDVCIADGVCIDAFLKPPMET
chain 2: LNFRAPPVIPNVPFLWAWNAPSEFCLGKFDEPLDMSLFSFIGSPRINATGQGVTIFYVDRLGYYPYIDSITGVTVNGGIPQKISLQDHLDKAKKDITFYMPVDNLGMAVIDWEEWRPTWARNWKPKDVYKNRSIELVQQQNVQLSLTEATEKAKQEFEKAGKDFLVETIKLGKLLRPNHLWGYYLFPDCYNHHYKKPGYNGSCFNVEIKRNDDLSWLWNESTALYPSIYLNTQQSPVAATLYVRNRVREAIRVSKIPDAKSPLPVFAYTRIVFTDQVLKFLSQDELVYTFGETVALGASGIVIWGTLSIMRSMKSCLLLDNYMETILNPYIINVTLAAKMCSQVLCQEQGVCIRKNWNSSDYLHLNPDNFAIQLEKGGKFTVRGKPTLEDLEQFSEKFYCSCYSTLSCKEKADVKDTDAVDVCIADGVCIDAFLKPPMET
modifications: HuPH20 precursor 1-475; Mature HuPH20 36-475
On to B1, for which, in the series on CHO-S cells, the “Expressed in Media” value is “YES”. In series [1], the “pH 5.5 Activity” value is listed as 2.0925 Units/ml and the “pH 7.4 Activity” value is 2.223 Units/ml.

B2: SPAM1-KPPM: C-terminally truncated human PH20, precursor 473 aa (SEQ ID NO:27), mature 438 aa (SEQ ID NO:79) (protein, listed as Homo sapiens)
chain 1: MGVLKFKHIFFRSFVKSSGVSQIVFTFLLIPCCLTLNFRAPPVIPNVPFLWAWNAPSEFCLGKFDEPLDMSLFSFIGSPRINATGQGVTIFYVDRLGYYPYIDSITGVTVNGGIPQKISLQDHLDKAKKDITFYMPVDNLGMAVIDWEEWRPTWARNWKPKDVYKNRSIELVQQQNVQLSLTEATEKAKQEFEKAGKDFLVETIKLGKLLRPNHLWGYYLFPDCYNHHYKKPGYNGSCFNVEIKRNDDLSWLWNESTALYPSIYLNTQQSPVAATLYVRNRVREAIRVSKIPDAKSPLPVFAYTRIVFTDQVLKFLSQDELVYTFGETVALGASGIVIWGTLSIMRSMKSCLLLDNYMETILNPYIINVTLAAKMCSQVLCQEQGVCIRKNWNSSDYLHLNPDNFAIQLEKGGKFTVRGKPTLEDLEQFSEKFYCSCYSTLSCKEKADVKDTDAVDVCIADGVCIDAFLKPPM
chain 2: LNFRAPPVIPNVPFLWAWNAPSEFCLGKFDEPLDMSLFSFIGSPRINATGQGVTIFYVDRLGYYPYIDSITGVTVNGGIPQKISLQDHLDKAKKDITFYMPVDNLGMAVIDWEEWRPTWARNWKPKDVYKNRSIELVQQQNVQLSLTEATEKAKQEFEKAGKDFLVETIKLGKLLRPNHLWGYYLFPDCYNHHYKKPGYNGSCFNVEIKRNDDLSWLWNESTALYPSIYLNTQQSPVAATLYVRNRVREAIRVSKIPDAKSPLPVFAYTRIVFTDQVLKFLSQDELVYTFGETVALGASGIVIWGTLSIMRSMKSCLLLDNYMETILNPYIINVTLAAKMCSQVLCQEQGVCIRKNWNSSDYLHLNPDNFAIQLEKGGKFTVRGKPTLEDLEQFSEKFYCSCYSTLSCKEKADVKDTDAVDVCIADGVCIDAFLKPPM
modifications: HuPH20 precursor 1-473; Mature HuPH20 36-473
As to B2, the “Expressed in Media” value in the series on CHO-S cells is “YES”. Moreover, in series [1], the “pH 5.5 Activity” value is 0.9157 Units/ml and the “pH 7.4 Activity” value worked out at 0.8595 Units/ml.

B3: SPAM1-METE: C-terminally truncated human PH20, precursor 476 aa (SEQ ID NO:24), mature 441 aa (SEQ ID NO:76) (protein, listed as Homo sapiens)
chain 1: MGVLKFKHIFFRSFVKSSGVSQIVFTFLLIPCCLTLNFRAPPVIPNVPFLWAWNAPSEFCLGKFDEPLDMSLFSFIGSPRINATGQGVTIFYVDRLGYYPYIDSITGVTVNGGIPQKISLQDHLDKAKKDITFYMPVDNLGMAVIDWEEWRPTWARNWKPKDVYKNRSIELVQQQNVQLSLTEATEKAKQEFEKAGKDFLVETIKLGKLLRPNHLWGYYLFPDCYNHHYKKPGYNGSCFNVEIKRNDDLSWLWNESTALYPSIYLNTQQSPVAATLYVRNRVREAIRVSKIPDAKSPLPVFAYTRIVFTDQVLKFLSQDELVYTFGETVALGASGIVIWGTLSIMRSMKSCLLLDNYMETILNPYIINVTLAAKMCSQVLCQEQGVCIRKNWNSSDYLHLNPDNFAIQLEKGGKFTVRGKPTLEDLEQFSEKFYCSCYSTLSCKEKADVKDTDAVDVCIADGVCIDAFLKPPMETE
chain 2: LNFRAPPVIPNVPFLWAWNAPSEFCLGKFDEPLDMSLFSFIGSPRINATGQGVTIFYVDRLGYYPYIDSITGVTVNGGIPQKISLQDHLDKAKKDITFYMPVDNLGMAVIDWEEWRPTWARNWKPKDVYKNRSIELVQQQNVQLSLTEATEKAKQEFEKAGKDFLVETIKLGKLLRPNHLWGYYLFPDCYNHHYKKPGYNGSCFNVEIKRNDDLSWLWNESTALYPSIYLNTQQSPVAATLYVRNRVREAIRVSKIPDAKSPLPVFAYTRIVFTDQVLKFLSQDELVYTFGETVALGASGIVIWGTLSIMRSMKSCLLLDNYMETILNPYIINVTLAAKMCSQVLCQEQGVCIRKNWNSSDYLHLNPDNFAIQLEKGGKFTVRGKPTLEDLEQFSEKFYCSCYSTLSCKEKADVKDTDAVDVCIADGVCIDAFLKPPMETE
modifications: HuPH20 precursor 1-476; Mature HuPH20 36-476
For the molecule B3, in the series with CHO-S cells, the “Expressed in Media” value was “YES”. Moreover, in series [1], the “pH 5.5 Activity” value is given as 1.278 Units/ml and the “pH 7.4 Activity” value amounted to 1.332 Units/ml.

B4: SPAM1-ETEE: C-terminally truncated human PH20, precursor 477 aa (SEQ ID NO:23), mature 442 aa (SEQ ID NO:75) (protein, listed as Homo sapiens)
chain 1: MGVLKFKHIFFRSFVKSSGVSQIVFTFLLIPCCLTLNFRAPPVIPNVPFLWAWNAPSEFCLGKFDEPLDMSLFSFIGSPRINATGQGVTIFYVDRLGYYPYIDSITGVTVNGGIPQKISLQDHLDKAKKDITFYMPVDNLGMAVIDWEEWRPTWARNWKPKDVYKNRSIELVQQQNVQLSLTEATEKAKQEFEKAGKDFLVETIKLGKLLRPNHLWGYYLFPDCYNHHYKKPGYNGSCFNVEIKRNDDLSWLWNESTALYPSIYLNTQQSPVAATLYVRNRVREAIRVSKIPDAKSPLPVFAYTRIVFTDQVLKFLSQDELVYTFGETVALGASGIVIWGTLSIMRSMKSCLLLDNYMETILNPYIINVTLAAKMCSQVLCQEQGVCIRKNWNSSDYLHLNPDNFAIQLEKGGKFTVRGKPTLEDLEQFSEKFYCSCYSTLSCKEKADVKDTDAVDVCIADGVCIDAFLKPPMETEE
chain 2: LNFRAPPVIPNVPFLWAWNAPSEFCLGKFDEPLDMSLFSFIGSPRINATGQGVTIFYVDRLGYYPYIDSITGVTVNGGIPQKISLQDHLDKAKKDITFYMPVDNLGMAVIDWEEWRPTWARNWKPKDVYKNRSIELVQQQNVQLSLTEATEKAKQEFEKAGKDFLVETIKLGKLLRPNHLWGYYLFPDCYNHHYKKPGYNGSCFNVEIKRNDDLSWLWNESTALYPSIYLNTQQSPVAATLYVRNRVREAIRVSKIPDAKSPLPVFAYTRIVFTDQVLKFLSQDELVYTFGETVALGASGIVIWGTLSIMRSMKSCLLLDNYMETILNPYIINVTLAAKMCSQVLCQEQGVCIRKNWNSSDYLHLNPDNFAIQLEKGGKFTVRGKPTLEDLEQFSEKFYCSCYSTLSCKEKADVKDTDAVDVCIADGVCIDAFLKPPMETEE
modifications: HuPH20 precursor 1-477; Mature HuPH20 36-477
Turning to B4, the “Expressed in Media” value with CHO-S cells is listed as “YES”. Also, in series [1], the “pH 5.5 Activity” value is given as 2.0475 Units/ml and the “pH 7.4 Activity” value turned out to be 2.088 Units/ml.

B5: SPAM1-PPME: C-terminally truncated human PH20, precursor 474 aa (SEQ ID NO:26), mature 439 aa (SEQ ID NO:78) (protein, listed as Homo sapiens)
chain 1: MGVLKFKHIFFRSFVKSSGVSQIVFTFLLIPCCLTLNFRAPPVIPNVPFLWAWNAPSEFCLGKFDEPLDMSLFSFIGSPRINATGQGVTIFYVDRLGYYPYIDSITGVTVNGGIPQKISLQDHLDKAKKDITFYMPVDNLGMAVIDWEEWRPTWARNWKPKDVYKNRSIELVQQQNVQLSLTEATEKAKQEFEKAGKDFLVETIKLGKLLRPNHLWGYYLFPDCYNHHYKKPGYNGSCFNVEIKRNDDLSWLWNESTALYPSIYLNTQQSPVAATLYVRNRVREAIRVSKIPDAKSPLPVFAYTRIVFTDQVLKFLSQDELVYTFGETVALGASGIVIWGTLSIMRSMKSCLLLDNYMETILNPYIINVTLAAKMCSQVLCQEQGVCIRKNWNSSDYLHLNPDNFAIQLEKGGKFTVRGKPTLEDLEQFSEKFYCSCYSTLSCKEKADVKDTDAVDVCIADGVCIDAFLKPPME
chain 2: LNFRAPPVIPNVPFLWAWNAPSEFCLGKFDEPLDMSLFSFIGSPRINATGQGVTIFYVDRLGYYPYIDSITGVTVNGGIPQKISLQDHLDKAKKDITFYMPVDNLGMAVIDWEEWRPTWARNWKPKDVYKNRSIELVQQQNVQLSLTEATEKAKQEFEKAGKDFLVETIKLGKLLRPNHLWGYYLFPDCYNHHYKKPGYNGSCFNVEIKRNDDLSWLWNESTALYPSIYLNTQQSPVAATLYVRNRVREAIRVSKIPDAKSPLPVFAYTRIVFTDQVLKFLSQDELVYTFGETVALGASGIVIWGTLSIMRSMKSCLLLDNYMETILNPYIINVTLAAKMCSQVLCQEQGVCIRKNWNSSDYLHLNPDNFAIQLEKGGKFTVRGKPTLEDLEQFSEKFYCSCYSTLSCKEKADVKDTDAVDVCIADGVCIDAFLKPPME
modifications: HuPH20 precursor 1-474; Mature HuPH20 36-474
For B5, the “Expressed in Media” value in the series on CHO-S cells is “YES”. In addition, in series [1], the “pH 5.5 Activity” value was found to be 1.341 Units/ml and the “pH 7.4 Activity” value was 1.2105 Units/ml.
